Measurements: PMC2903825

Molecular target: unmodified guanylate-binding protein 1 (hGBP1) (human) (UniProt P32455)
Experiment: concentration-dependent GTPase activity

## unmodified guanylate-binding protein 1 (hGBP1) (from UniProt P32455 1-592) (enzyme)
  Kd: 4 µM
